Experimental data published in article PMC3901395, “Multivalent interactions of the SUMO-interaction motifs in RING finger protein 4 determine the specificity for chains of the SUMO” (Biochemical Journal, 2013).

How the values were obtained:
di-SUMO2–GFP–HA2 = test: Proteasomal targeting of di-SUMO2–GFP–HA2 by RNF4 in yeast; assay type: cell-based, S. cerevisiae
Source text: (§1) For expression in Escherichia coli, linear poly-SUMO chains were generated as described previously with slight modifications. After the combined PCR/ligation reaction, the 4×SUMO2-ΔN11 or 4×SUMO1-ΔN15 DNA polymers were separated from smaller polymers by agarose gel electrophoresis and individually extracted (Macherey–Nagel). These were then subjected to a second PCR with primers to create BamHI and XhoI restriction sites, a C-terminal GG motif and a stop codon. The resulting fragments coding for di-, tri- and tetra-SUMO2-ΔN11 or SUMO1-ΔN15 chains were amplified and cloned into pGEX-4T2. […] Each monomer in these chains is separated by RS replacing the natural GG motif. […]
(§2) wt (wild-type) S. cerevisiae strains (JD47-13C) containing centromeric (low copy) plasmids expressing various (SUMO2)n–GFP–HA2 ([…]) fusions were grown overnight in minimal medium composed of 0.67% yeast nitrogen base with 2% raffinose as a carbon source. Cells from the overnight cultures were used to inoculate cultures with minimal media containing 2% galactose at a starting attenuance measured at 600 nm of 0.25. […] The levels of substrates and, as a loading control, levels of CDC11 were analysed by Western blotting and detection with an Odyssey infrared fluorescence imaging system (LI-COR).

tetra-SUMO2–GFP–HA2 = test: Proteasomal targeting of tetra-SUMO2–GFP–HA2 by RNF4 in yeast; assay type: cell-based, S. cerevisiae; conditions: yeast coexpressing RNF4; Western blot, normalized to CDC11
Source text: as §1, §2

B1: RNF4 FL: full-length human RNF4 (RING finger protein 4); FLAG-tagged in yeast, HA-tagged in HeLa cells (protein)
chain: MSTRKRRGGAINSRQAQKRTREATSTPEISLEAEPIELVETAGDEIVDLTCESLEPVVVDLTHNDSVVIVDERRRPRRNARRLPQDHADSCVVSSDDEELSRDRDVYVTTHTPRNARDEGATGLRPSGTVSCPICMDGYSEIVQNGRLIVSTECGHVFCSQCLRDSLKNANTCPTCRKKINHKRYHPIYI
modifications: left off: GST, end not stated, cleaved
notes: full-length human RNF4 (RING finger protein 4); FLAG-tagged in yeast, HA-tagged in HeLa cells
- level of di-SUMO2–GFP–HA reporter (control without RNF4 = 100%) (di-SUMO2–GFP–HA2; yeast coexpressing RNF4, Western blot, normalized to CDC11): approximately 55%
- targeting of di-SUMO2 in yeast (di-SUMO2–GFP–HA2; yeast coexpressing wt RNF4): efficiently targets di-SUMO2 in yeast
- level of tetra-SUMO2–GFP–HA reporter (control without RNF4 = 100%) (tetra-SUMO2–GFP–HA2): 43%
